From PMC8378520 (Nature structural & molecular biology, 2021)

T1: FANCI (human, UniProt Q9NVI1 1-1328)
T1 sequence: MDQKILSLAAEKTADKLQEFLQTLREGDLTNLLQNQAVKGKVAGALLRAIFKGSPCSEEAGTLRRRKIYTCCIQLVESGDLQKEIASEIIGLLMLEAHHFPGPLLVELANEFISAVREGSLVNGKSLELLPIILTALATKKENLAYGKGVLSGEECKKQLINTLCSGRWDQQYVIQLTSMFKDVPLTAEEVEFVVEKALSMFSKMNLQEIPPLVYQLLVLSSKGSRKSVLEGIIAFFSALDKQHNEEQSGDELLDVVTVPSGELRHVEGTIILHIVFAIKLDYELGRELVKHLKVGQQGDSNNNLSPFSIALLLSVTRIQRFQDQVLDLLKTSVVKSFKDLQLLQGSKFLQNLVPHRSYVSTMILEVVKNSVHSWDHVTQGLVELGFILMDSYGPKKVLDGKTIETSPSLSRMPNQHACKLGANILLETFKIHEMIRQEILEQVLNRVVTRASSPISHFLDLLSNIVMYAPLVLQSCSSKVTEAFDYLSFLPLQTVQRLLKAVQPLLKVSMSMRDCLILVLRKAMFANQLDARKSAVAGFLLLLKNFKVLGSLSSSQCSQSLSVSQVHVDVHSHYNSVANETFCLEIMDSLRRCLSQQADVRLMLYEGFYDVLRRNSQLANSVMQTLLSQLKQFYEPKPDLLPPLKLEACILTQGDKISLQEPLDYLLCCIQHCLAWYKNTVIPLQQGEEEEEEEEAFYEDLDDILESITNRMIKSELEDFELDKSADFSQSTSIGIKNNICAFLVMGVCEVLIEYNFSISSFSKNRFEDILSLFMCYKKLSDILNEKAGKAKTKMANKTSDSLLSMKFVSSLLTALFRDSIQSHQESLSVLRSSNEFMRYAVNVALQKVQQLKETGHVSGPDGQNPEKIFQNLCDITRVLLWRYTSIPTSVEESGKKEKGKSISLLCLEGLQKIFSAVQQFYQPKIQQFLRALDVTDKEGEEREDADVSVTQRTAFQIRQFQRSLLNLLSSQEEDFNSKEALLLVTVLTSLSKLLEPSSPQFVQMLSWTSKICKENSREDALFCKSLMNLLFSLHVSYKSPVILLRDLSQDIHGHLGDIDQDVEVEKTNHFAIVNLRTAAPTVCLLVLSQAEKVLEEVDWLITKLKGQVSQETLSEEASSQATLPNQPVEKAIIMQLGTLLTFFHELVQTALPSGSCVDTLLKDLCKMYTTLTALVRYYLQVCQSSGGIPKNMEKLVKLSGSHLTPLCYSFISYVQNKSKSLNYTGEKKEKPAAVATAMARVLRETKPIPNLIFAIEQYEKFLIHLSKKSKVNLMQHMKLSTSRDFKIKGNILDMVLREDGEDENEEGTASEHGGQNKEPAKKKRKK

B1: UBE2T (enzyme, human)
chain: MQRASRLKRELHMLATEPPPGITCWQDKDQMDDLRAQILGGANTPYEKGVFKLEVIIPERYPFEPPQIRFLTPIYHPNIDSAGRICLDVLKLPPKGAWRPSLNIATVLTSIQLLMSEPNPDDPLMADISSEFKYNKPAFLKNARQWTEKHARQKQKADEEEMLDNLPEAGDSRVHNSTQKRKASQLVGIEKKFHPDV
B2: FANCB-FAAP100 heterodimer (complex, human)
chain 1: MTSKQAMSSNEQERLLCYNGEVLVFQLSKGNFADKEPTKTPILHVRRMVFDRGTKVFVQKSTGFFTIKEENSHLKIMCCNCVSDFRTGINLPYIVIEKNKKNNVFEYFLLILHSTNKFEMRLSFKLGYEMKDGLRVLNGPLILWRHVKAFFFISSQTGKVVSVSGNFSSIQWAGEIENLGMVLLGLKECCLSEEECTQEPSKSDYAIWNTKFCVYSLESQEVLSDIYIIPPAYSSVVTYVHICATEIIKNQLRISLIALTRKNQLISFQNGTPKNVCQLPFGDPCAVQLMDSGGGNLFFVVSFISNNACAVWKESFQVAAKWEKLSLVLIDDFIGSGTEQVLLLFKDSLNSDCLTSFKITDLGKINYSSEPSDCNEDDLFEDKQENRYLVVPPLETGLKVCFSSFRELRQHLLLKEKIISKSYKALINLVQGKDDNTSSAEEKECLVPLCGEEENSVHILDEKLSDNFQDSEQLVEKIWYRVIDDSLVVGVKTTSSLKLSLNDVTLSLLMDQAHDSRFRLLKCQNRVIKLSTNPFPAPYLMPCEIGLEAKRVTLTPDSKKEESFVCEHPSKKECVQIITAVTSLSPLLTFSKFCCTVLLQIMERESGNCPKDRYVVCGRVFLSLEDLSTGKYLLTFPKKKPIEHMEDLFALLAAFHKSCFQITSPGYALNSMKVWLLEHMKCEIIKEFPEVYFCERPGSFYGTLFTWKQRTPFEGILIIYSRNQTVMFQCLHNLIRILPINCFLKNLKSGSENFLIDNMAFTLEKELVTLSSLSSAIAKHESNFMQRCEVSKGKSSVVAAALSDRRENIHPYRKELQREKKKMLQTNLKVSGALYREITLKVAEVQLKSDFAAQKLSNL
chain 2: MAGAAPRVRYLAGFCCPLGGLAAGKPRVLCHEAEVFLSTGSELVYVYDQEGGLLTAAFRFPDQVWHLELLAPRRLLYALCARRGLYCLSLDHPGRSRSTSQDDRDSEDGDQPSPVIPVDPDACILPDAALCAFTLLDSVLVTLVQGPARWKMQLFEQPCPGEDPRPGGQIGEVELSSYTPPAGVPGKPAAPHFLPVLCSVSPSGSRVPHDLLGGSGGFTLEDALFGLLFGADATLLQSPVVLCGLPDGQLCCVILKALVTSRSAPGDPNALVKILHHLEEPVIFIGALKTEPQAAEAAENFLPDEDVHCDCLVAFGHHGRMLAIKASWDESGKLVPELREYCLPGPVLCAACGGGGRVYHSTPSDLCVVDLSRGSTPLGPEQPEEGPGGLPPMLCPASLNICSVVSLSASPRTHEGGTKLLALSAKGRLMTCSLDLDSEMPGPARMTTESAGQKIKELLSGIGNISERVSFLKKAVDQRNKALTSLNEAMNVSCALLSSGTGPRPISCTTSTTWSRLQTQDVLMATCVLENSSSFSLDQGWTLCIQVLTSSCALDLDSACSAITYTIPVDQLGPGARREVTLPLGPGENGGLDLPVTVSCTLFYSLREVVGGALAPSDSEDPFLDECPSDVLPEQEGVCLPLSRHTVDMLQCLRFPGLAPPHTRAPSPLGPTRDPVATFLETCREPGSQPAGPASLRAEYLPPSVASIKVSAELLRAALKDGHSGVPLCCATLQWLLAENAAVDVVRARALSSIQGVAPDGANVHLIVREVAMTDLCPAGPIQAVEIQVESSSLADICRAHHAVVGRMQTMVTEQATQGSSAPDLRVQYLRQIHANHETLLREVQTLRDRLCTEDEASSCATAQRLLQVYRQLRHPSLILL
B3: FANCL (enzyme, human, UniProt Q9NW38-1 1-375, looked up)
chain: MAVTEASLLRQCPLLLPQNRSKTVYEGFISAQGRDFHLRIVLPEDLQLKNARLLCSWQLRTILSGYHRIVQQRMQHSPDLMSFMMELKMLLEVALKNRQELYALPPPPQFYSSLIEEIGTLGWDKLVYADTCFSTIKLKAEDASGREHLITLKLKAKYPAESPDYFVDFPVPFCASWTPQSSLISIYSQFLAAIESLKAFWDVMDEIDEKTWVLEPEKPPRSATARRIALGNNVSINIEVDPRHPTMLPECFFLGADHVVKPLGIKLSRNIHLWDPENSVLQNLKDVLEIDFPARAILEKSDFTMDCGICYAYQLDGTIPDQVCDNSQCGQPFHQICLYEWLRGLLTSRQSFNIIFGECPYCSKPITLKMSGRKH
B4: FANCA (natural protein, human, UniProt O15360-1 1-1455, looked up)
chain: MSDSWVPNSASGQDPGGRRRAWAELLAGRVKREKYNPERAQKLKESAVRLLRSHQDLNALLLEVEGPLCKKLSLSKVIDCDSSEAYANHSSSFIGSALQDQASRLGVPVGILSAGMVASSVGQICTAPAETSHPVLLTVEQRKKLSSLLEFAQYLLAHSMFSRLSFCQELWKIQSSLLLEAVWHLHVQGIVSLQELLESHPDMHAVGSWLFRNLCCLCEQMEASCQHADVARAMLSDFVQMFVLRGFQKNSDLRRTVEPEKMPQVTVDVLQRMLIFALDALAAGVQEESSTHKIVRCWFGVFSGHTLGSVISTDPLKRFFSHTLTQILTHSPVLKASDAVQMQREWSFARTHPLLTSLYRRLFVMLSAEELVGHLQEVLETQEVHWQRVLSFVSALVVCFPEAQQLLEDWVARLMAQAFESCQLDSMVTAFLVVRQAALEGPSAFLSYADWFKASFGSTRGYHGCSKKALVFLFTFLSELVPFESPRYLQVHILHPPLVPGKYRSLLTDYISLAKTRLADLKVSIENMGLYEDLSSAGDITEPHSQALQDVEKAIMVFEHTGNIPVTVMEASIFRRPYYVSHFLPALLTPRVLPKVPDSRVAFIESLKRADKIPPSLYSTYCQACSAAEEKPEDAALGVRAEPNSAEEPLGQLTAALGELRASMTDPSQRDVISAQVAVISERLRAVLGHNEDDSSVEISKIQLSINTPRLEPREHMAVDLLLTSFCQNLMAASSVAPPERQGPWAALFVRTMCGRVLPAVLTRLCQLLRHQGPSLSAPHVLGLAALAVHLGESRSALPEVDVGPPAPGAGLPVPALFDSLLTCRTRDSLFFCLKFCTAAISYSLCKFSSQSRDTLCSCLSPGLIKKFQFLMFRLFSEARQPLSEEDVASLSWRPLHLPSADWQRAALSLWTHRTFREVLKEEDVHLTYQDWLHLELEIQPEADALSDTERQDFHQWAIHEHFLPESSASGGCDGDLQAACTILVNALMDFHQSSRSYDHSENSDLVFGGRTGNEDIISRLQEMVADLELQQDLIVPLGHTPSQEHFLFEIFRRRLQALTSGWSVAASLQRQRELLMYKRILLRLPSSVLCGSSFQAEQPITARCEQFFHLVNSEMRNFCSHGGALTQDITAHFFRGLLNACLRSRDPSLMVDFILAKCQTKCPLILTSALVWWPSLEPVLLCRWRRHCQSPLPRELQKLQEGRQFASDFLSPEAASPAPNPDWLSAAALHFAIQQVREENIRKQLKKLDCEREELLVFLFFFSLMGLLSSHLTSNSTTDLPKAFHVCAAILECLEKRKISWLALFQLTESDLRLGRLLLRVAPDQHTRLLPFAFYSLLSYFHEDAAIREEAFLHVAVDMYLKLVQLFVAGDTSTVSPPAGRSLELKGQGNPVELITKARLFLLQLIPRCPKKSFSHVAELLADRGDCDPEVSAALQSRQQAAPDADLSQEPHLF

What was measured:
Test in all cases: cryo-EM structure
[1] = molecular target: FA Core complex (human | human (endogenous in HEK-293F)) (UniProt O15360)
FANCI = molecular target: T1, FANCI
FANCL = molecular target: B3
cryo-EM structure = molecular target: the molecule itself

| Molecule | binding result (FANCI) | stoichiometry N (cryo-EM structure) | other results |
| --- | --- | --- | --- |
| FANCI-FANCD2 (ID) complex (from UniProt Q9NVI1 1-1328; Q9BXW9 1-1451) |  |  | percent of Core particles with bound ID [1]: 63% |
| B1 | binds |  | binding result (FANCL): binds |
| B2 |  | 2 |  |
| B3 | binds |  |  |
| B4 |  | 2 |  |
